# Data from patent US9176064B2, “Bisubstrate fluorescent probes for protein kinase CK2” (University of Tartu, priority 2012, dated 2015).
# Where a SMILES comes first, the peptide text is derived from it. [ ]: non-standard residue; d: D form. The star is where a group is joined. X1 = O=C(CCCCCCCn1cnc2c(Br)c(Br)c(Br)c(Br)c21)*
# Columns and labels:
# Assay in all cases: Kinase panel residual activity
# Assay type in all cases: biochemical
# Settings in all cases: compound at 1 micromolar
# PAK4 = PAK4 (Homo sapiens, UniProt O96013)
# Chain of PAK4 (O96013 whole entry, species assumed): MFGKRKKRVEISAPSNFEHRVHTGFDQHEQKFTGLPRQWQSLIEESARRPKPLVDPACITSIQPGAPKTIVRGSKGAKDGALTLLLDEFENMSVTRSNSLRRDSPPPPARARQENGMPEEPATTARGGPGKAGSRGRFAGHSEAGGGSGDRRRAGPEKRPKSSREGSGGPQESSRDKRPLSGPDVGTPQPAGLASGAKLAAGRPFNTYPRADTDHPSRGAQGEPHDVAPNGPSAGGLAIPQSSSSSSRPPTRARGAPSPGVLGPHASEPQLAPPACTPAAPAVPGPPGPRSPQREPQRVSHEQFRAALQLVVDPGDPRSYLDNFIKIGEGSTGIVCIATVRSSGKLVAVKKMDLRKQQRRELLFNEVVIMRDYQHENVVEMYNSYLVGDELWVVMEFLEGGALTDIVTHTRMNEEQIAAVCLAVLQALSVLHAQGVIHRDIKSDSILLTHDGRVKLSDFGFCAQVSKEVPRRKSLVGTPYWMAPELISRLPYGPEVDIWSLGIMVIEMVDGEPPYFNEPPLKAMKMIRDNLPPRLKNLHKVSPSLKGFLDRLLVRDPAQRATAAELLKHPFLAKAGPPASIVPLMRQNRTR
# PDGFRA = PDGFRA (Homo sapiens, UniProt P16234)
# Chain of PDGFRA (P16234 24-1089, species assumed): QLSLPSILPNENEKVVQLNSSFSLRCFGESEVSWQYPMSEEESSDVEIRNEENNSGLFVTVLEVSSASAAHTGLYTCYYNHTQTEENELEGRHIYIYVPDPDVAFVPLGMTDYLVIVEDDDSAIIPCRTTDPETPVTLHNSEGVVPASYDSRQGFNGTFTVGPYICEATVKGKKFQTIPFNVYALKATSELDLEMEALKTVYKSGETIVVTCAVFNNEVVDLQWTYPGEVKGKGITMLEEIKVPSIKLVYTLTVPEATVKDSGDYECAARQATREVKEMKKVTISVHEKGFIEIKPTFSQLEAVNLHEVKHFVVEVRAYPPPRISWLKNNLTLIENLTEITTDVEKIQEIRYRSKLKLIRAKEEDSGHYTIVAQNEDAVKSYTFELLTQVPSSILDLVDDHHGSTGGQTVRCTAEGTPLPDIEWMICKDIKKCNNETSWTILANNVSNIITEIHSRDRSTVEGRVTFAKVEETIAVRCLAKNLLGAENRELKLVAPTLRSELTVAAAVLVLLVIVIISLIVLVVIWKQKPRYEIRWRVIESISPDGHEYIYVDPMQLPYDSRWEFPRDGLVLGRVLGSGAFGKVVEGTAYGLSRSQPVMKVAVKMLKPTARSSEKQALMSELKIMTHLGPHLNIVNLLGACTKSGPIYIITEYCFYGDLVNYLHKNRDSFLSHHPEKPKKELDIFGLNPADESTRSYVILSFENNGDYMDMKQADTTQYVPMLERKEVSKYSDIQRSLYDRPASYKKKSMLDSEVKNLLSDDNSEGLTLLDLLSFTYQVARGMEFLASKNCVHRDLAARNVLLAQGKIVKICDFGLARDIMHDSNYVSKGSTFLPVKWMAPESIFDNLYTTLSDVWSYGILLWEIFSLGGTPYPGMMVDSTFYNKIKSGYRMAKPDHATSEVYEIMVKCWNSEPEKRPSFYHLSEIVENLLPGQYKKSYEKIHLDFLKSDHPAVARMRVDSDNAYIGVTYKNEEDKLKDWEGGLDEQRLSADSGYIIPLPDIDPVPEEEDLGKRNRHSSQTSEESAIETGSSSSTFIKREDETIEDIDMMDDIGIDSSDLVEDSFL
# ULK2 = molecular target: T1, ULK2 (Homo sapiens, UniProt Q8IYT8)
# T1 sequence (Q8IYT8 1-1036): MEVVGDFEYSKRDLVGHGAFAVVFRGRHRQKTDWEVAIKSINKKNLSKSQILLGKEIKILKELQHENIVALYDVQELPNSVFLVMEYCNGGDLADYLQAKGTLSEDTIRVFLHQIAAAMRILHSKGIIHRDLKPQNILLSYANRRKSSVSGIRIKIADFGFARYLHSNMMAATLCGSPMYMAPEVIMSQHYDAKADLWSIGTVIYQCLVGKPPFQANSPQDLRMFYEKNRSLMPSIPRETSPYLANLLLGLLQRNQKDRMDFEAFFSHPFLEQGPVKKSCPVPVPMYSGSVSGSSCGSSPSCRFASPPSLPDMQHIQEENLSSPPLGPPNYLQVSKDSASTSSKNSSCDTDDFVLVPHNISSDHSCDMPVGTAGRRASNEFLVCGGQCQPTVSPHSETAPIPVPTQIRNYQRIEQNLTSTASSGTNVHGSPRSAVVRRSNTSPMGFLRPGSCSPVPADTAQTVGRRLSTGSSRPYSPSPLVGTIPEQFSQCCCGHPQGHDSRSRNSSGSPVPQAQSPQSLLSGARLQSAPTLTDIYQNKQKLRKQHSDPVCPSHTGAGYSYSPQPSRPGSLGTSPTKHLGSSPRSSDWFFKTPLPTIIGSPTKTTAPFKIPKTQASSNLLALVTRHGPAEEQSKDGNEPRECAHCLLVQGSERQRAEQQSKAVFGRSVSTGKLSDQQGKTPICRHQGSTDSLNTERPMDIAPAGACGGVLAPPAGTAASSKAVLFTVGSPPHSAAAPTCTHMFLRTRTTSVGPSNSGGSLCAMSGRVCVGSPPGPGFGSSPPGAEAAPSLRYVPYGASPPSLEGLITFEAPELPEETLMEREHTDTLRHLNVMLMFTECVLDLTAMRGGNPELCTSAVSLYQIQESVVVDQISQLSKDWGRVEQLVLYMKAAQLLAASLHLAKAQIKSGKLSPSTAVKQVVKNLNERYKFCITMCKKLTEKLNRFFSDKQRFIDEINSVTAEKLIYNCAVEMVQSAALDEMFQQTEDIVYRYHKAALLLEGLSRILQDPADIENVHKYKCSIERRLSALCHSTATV
# PAK6 = PAK6 (Homo sapiens, UniProt Q9NQU5)
# Chain of PAK6 (Q9NQU5 whole entry, species assumed): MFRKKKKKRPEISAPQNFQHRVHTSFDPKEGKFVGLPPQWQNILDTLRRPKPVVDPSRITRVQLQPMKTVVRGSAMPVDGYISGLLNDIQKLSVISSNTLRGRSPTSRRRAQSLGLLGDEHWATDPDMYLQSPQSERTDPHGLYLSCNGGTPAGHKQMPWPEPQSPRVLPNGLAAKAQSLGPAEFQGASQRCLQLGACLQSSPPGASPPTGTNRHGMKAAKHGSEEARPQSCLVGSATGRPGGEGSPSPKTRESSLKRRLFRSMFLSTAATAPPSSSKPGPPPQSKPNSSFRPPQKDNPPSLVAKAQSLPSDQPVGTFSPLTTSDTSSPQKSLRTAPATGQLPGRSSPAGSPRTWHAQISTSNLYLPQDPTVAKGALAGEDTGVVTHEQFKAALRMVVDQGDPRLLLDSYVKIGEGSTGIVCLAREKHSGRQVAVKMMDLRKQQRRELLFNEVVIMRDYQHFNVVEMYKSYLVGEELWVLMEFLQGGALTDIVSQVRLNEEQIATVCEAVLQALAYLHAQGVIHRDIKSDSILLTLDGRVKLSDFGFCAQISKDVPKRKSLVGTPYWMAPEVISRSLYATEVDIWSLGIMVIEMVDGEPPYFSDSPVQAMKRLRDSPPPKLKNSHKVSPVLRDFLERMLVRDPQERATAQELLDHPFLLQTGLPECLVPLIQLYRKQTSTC
# MARK3 = MARK3 (Homo sapiens, UniProt P27448)
# Chain of MARK3 (P27448 whole entry, species assumed): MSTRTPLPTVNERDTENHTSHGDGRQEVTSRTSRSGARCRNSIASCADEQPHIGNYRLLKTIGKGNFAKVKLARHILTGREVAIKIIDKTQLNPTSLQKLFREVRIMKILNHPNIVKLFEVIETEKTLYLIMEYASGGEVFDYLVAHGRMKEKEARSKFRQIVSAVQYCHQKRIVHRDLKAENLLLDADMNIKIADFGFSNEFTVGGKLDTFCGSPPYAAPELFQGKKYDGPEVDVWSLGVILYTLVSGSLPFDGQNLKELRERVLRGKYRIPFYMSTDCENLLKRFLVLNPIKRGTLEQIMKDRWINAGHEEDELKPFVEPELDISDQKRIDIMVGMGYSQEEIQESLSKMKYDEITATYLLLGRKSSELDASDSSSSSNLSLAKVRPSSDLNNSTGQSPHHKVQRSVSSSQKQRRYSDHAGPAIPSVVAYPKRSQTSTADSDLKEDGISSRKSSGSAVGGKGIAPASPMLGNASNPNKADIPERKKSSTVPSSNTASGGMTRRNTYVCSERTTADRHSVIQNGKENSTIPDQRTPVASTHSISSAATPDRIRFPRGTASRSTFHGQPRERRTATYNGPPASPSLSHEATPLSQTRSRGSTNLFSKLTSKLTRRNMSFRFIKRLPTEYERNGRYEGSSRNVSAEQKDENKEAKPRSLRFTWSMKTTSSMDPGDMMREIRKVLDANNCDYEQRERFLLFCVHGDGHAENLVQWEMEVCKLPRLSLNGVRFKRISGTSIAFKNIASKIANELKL
# MARK4 = molecular target: T2, MARK4 (Homo sapiens, UniProt Q96L34)
# T2 sequence (Q96L34 1-752): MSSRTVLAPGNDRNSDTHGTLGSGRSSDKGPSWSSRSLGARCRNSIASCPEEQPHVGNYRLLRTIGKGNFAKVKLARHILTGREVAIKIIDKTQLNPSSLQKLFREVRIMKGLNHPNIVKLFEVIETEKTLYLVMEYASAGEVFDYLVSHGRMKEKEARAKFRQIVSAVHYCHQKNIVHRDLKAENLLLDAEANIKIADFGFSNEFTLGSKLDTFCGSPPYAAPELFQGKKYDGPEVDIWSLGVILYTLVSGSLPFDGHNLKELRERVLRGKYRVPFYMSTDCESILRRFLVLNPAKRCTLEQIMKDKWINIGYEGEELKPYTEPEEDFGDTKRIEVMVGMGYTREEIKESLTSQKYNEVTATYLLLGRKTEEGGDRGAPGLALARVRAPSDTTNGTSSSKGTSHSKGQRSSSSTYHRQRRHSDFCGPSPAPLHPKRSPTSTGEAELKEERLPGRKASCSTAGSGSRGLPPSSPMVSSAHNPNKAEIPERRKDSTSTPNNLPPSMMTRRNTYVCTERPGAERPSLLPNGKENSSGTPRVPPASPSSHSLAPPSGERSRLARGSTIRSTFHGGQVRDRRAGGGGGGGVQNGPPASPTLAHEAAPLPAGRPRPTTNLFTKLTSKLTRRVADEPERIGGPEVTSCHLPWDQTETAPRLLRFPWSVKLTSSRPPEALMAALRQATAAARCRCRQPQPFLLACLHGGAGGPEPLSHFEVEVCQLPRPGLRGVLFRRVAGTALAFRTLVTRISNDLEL
# BTK = BTK (Homo sapiens, UniProt Q06187)
# Chain of BTK (Q06187 whole entry, species assumed): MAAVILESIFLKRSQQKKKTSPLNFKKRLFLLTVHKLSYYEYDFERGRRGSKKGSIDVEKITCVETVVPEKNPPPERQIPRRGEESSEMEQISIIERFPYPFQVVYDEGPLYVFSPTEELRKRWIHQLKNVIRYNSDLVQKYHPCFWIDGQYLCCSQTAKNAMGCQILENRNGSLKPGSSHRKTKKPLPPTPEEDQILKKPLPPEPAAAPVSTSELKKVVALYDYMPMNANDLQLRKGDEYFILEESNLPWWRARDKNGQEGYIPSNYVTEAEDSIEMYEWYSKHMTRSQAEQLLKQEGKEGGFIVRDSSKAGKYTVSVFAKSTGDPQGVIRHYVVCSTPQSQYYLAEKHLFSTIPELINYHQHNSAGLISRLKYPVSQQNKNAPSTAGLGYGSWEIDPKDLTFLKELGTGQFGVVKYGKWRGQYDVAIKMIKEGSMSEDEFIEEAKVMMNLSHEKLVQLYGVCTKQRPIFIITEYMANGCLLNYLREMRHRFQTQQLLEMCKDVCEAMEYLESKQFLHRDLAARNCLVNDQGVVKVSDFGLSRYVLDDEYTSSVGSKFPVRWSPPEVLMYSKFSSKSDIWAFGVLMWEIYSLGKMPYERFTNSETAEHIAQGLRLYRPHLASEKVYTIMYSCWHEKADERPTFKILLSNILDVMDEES
# IKKe = molecular target: T3, IKKe (Homo sapiens, UniProt Q14164)
# T3 sequence (Q14164 1-716): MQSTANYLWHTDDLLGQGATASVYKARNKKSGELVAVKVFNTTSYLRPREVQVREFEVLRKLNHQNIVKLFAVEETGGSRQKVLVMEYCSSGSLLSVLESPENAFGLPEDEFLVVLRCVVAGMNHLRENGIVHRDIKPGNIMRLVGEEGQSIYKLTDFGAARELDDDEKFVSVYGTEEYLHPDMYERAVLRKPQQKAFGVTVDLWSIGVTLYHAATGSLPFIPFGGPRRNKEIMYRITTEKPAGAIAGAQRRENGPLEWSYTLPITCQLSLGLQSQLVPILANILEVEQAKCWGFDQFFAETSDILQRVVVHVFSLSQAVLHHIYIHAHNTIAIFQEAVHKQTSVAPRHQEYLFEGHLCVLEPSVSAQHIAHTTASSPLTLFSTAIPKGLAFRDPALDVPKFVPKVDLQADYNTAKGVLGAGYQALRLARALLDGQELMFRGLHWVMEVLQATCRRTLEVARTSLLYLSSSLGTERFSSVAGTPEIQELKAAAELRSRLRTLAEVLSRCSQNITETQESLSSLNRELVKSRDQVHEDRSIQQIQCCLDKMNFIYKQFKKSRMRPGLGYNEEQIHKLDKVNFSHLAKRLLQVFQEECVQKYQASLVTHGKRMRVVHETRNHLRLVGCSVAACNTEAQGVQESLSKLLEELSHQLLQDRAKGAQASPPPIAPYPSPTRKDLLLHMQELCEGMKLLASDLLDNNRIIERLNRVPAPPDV
# CDK9-Cyclin T1 = CDK9-Cyclin T1 (Homo sapiens, UniProt P50750)
# Chain of CDK9-Cyclin T1 (P50750 whole entry): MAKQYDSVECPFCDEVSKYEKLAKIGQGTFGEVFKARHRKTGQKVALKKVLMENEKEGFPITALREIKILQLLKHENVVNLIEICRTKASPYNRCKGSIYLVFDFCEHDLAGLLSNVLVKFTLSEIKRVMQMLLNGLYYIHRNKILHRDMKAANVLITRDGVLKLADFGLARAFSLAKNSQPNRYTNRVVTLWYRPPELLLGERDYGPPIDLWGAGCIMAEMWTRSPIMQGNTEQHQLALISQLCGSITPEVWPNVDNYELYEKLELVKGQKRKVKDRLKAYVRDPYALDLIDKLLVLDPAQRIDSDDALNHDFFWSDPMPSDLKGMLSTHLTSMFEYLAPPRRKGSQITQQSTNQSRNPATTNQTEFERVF
# Chain of CDK9-Cyclin T1 (O60563 whole entry partner): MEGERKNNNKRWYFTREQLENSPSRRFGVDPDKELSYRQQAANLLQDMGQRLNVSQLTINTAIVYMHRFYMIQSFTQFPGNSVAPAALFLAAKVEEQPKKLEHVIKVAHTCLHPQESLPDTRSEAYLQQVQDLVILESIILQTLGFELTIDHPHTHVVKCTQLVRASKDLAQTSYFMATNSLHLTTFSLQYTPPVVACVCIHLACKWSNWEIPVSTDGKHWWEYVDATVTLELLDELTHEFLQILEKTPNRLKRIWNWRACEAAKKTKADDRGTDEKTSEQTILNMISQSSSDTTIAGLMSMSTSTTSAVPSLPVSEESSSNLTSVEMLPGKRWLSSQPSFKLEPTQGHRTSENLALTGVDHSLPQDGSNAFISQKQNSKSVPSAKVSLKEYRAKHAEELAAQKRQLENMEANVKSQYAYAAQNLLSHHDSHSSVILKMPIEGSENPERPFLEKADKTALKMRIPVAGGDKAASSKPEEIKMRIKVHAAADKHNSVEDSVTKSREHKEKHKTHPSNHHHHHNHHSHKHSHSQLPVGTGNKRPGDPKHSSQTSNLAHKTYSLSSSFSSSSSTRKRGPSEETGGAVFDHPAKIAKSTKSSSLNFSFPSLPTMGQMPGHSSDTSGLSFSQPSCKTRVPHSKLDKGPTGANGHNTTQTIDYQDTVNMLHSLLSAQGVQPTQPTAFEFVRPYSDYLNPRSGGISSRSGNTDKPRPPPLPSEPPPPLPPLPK
structure (smiles),measurement,setting,value
NCCCC[C@H](NC(=O)[C@H](CC(=O)O)NC(=O)[C@H](CC(=O)O)NC(=O)[C@H](CC(=O)O)NC(=O)[C@H](CC(=O)O)NC(=O)[C@H](CC(=O)O)NC(=O)[C@@H](CC(=O)O)NC(=O)CCCCCCCn1cnc2c(Br)c(Br)c(Br)c(Br)c21)C(=O)O [TBBI-OcA-(D-Asp)-(L-Asp)5-(L-Lys)-OH] (X1-[dD]DDDDDK-OH),remaining activity at 1 µM,PAK4,71%
same,remaining activity at 1 µM,PDGFRA,77%
same,remaining activity at 1 µM,ULK2,110%
same,remaining activity at 1 µM,PAK6,86%
same,remaining activity at 1 µM,MARK3,73%
same,remaining activity at 1 µM,MARK4,75%
same,remaining activity at 1 µM,BTK,80%
same,remaining activity at 1 µM,IKKe,84%
same,remaining activity at 1 µM,CDK9-Cyclin T1,65%
